From patent US5726147A, “Human mutant tissue factor compositions useful as tissue factor antagonists” (priority 1995, dated 1998)
Changes are numbered by the printed parent chain.

B1: S16-T17-K20: human tissue factor triple mutant with alanine at positions 16, 17 and 20 (protein, UniProt P13726 33-295, looked up, variant S16A T17A K20A)
Tissue factor: SGTTNTVAAYNLTWKAANFATILEWEPKPVNQVYTVQISTKSGDWKSKCFYTTDTECDLTDEIVKDVKQTYLARVFSYPAGNVESTGSAGEPLYENSPEFTPYLETNLGQPTIQSFEQVGTKVNVTVEDERTLVRRNNTFLSLRDVFGKDLIYTLYYWKSSSSGKKTAKTNTNEFLIDVDKGENYCFSVQAVIPSRTVNRKSTDSPVECMGQEKGEFREIFYIIGAVVFVVIILVIILAISLHKCRKAGVGQSWKENSPLNVS
B2: Arg-135: human tissue factor mutant, Arg-135 substituted by Ala (protein, UniProt P13726 33-295, looked up, variant R135A)
Tissue factor: B1 Tissue factor with A16S, A17T, A20K, R135A
B3: K65-D66-K68: human tissue factor triple alanine mutant at positions 65, 66 and 68 (protein, UniProt P13726 33-295, looked up, variant K65A D66A K68A)
Tissue factor: B1 Tissue factor with A16S, A17T, A20K, K65A, D66A, K68A
B4: R44: mhuTF in which arginine is substituted in place of D44 (protein, UniProt P13726 33-295, looked up, variant D44R)
Tissue factor: B1 Tissue factor with A16S, A17T, A20K, D44R
B5: Phe-140: human tissue factor mutant, Phe-140 substituted by Ala (protein, UniProt P13726 33-295, looked up, variant F140A)
Tissue factor: B1 Tissue factor with A16S, A17T, A20K, F140A
B6: Arg-196: human tissue factor mutant, Arg-196 replacement by alanine in the Fc-Gc-loop (protein, UniProt P13726 33-295, looked up, variant R196A)
Tissue factor: B1 Tissue factor with A16S, A17T, A20K, R196A
B7: Ile-22 to Ala: full-length human tissue factor mutant, Ile-22 replaced by alanine (protein, UniProt P13726 1-295, looked up, variant I22A)
chain: METPAWPRVPRPETAVARTLLLGWVFAQVAGASGTTNTVAAYNLTWKSTNFKTALEWEPKPVNQVYTVQISTKSGDWKSKCFYTTDTECDLTDEIVKDVKQTYLARVFSYPAGNVESTGSAGEPLYENSPEFTPYLETNLGQPTIQSFEQVGTKVNVTVEDERTLVRRNNTFLSLRDVFGKDLIYTLYYWKSSSSGKKTAKTNTNEFLIDVDKGENYCFSVQAVIPSRTVNRKSTDSPVECMGQEKGEFREIFYIIGAVVFVVIILVIILAISLHKCRKAGVGQSWKENSPLNVS
modifications: full-length
notes: full-length human tissue factor mutant, Ile-22 replaced by alanine

How the values were obtained:
Format in all cases: biochemical
[1] = tested on: coagulation in recalcified plasma; assay: One stage clotting (coagulation) assay of specific functional activity of full-length TF mutants in CHO cell lysates; details: full-length Ala mutant expressed in CHO cells, cell lysate, coagulant activity normalized to antigen, relative to wild-type TF
Protocol: The full-length TF mutants prepared above were analyzed for function by coagulation assay. […] Coagulation factor deficient plasmas were purchased from George King Bio-medical. The chromogenic substrate, Spectrozyme FXa, was from American Diagnostica Inc. (Greenwich, Conn.).
An alternative approach was to use a polyvalent antibody purified by affinity for capturing TF followed by detection with the TF8-5G9 monoclonal antibody described above.
Initiation of coagulation by wild-type and mutant TF in recalcified plasma was determined after lysis of cell pellets from 2×10^6 cells/ml for each expressed full-length mutant with 15 mM octyl-glucopyranoside in HBS for 15 minutes at 37 C. followed by a 3-fold dilution.
All data represented are based on at least three independent determinations performed in duplicate.

recombinant VIIa = assay: Linked chromogenic assay with purified VIIa and factor X, apparent dissociation constant of the TF-VIIa interaction; details: for binding of Factor VIIa: triple alanine mutants; for change in KDapp for the TF-VIIa interaction compared to wild-type TF (ratio KD mutant/KD wild-type): full-length Ala mutants, linked chromogenic assay
Protocol: (§1) The lysate was prepared by treating cell pellets with 15 mM octyl-glucopyranoside for 15 minutes at 37 C. followed by a 3-fold dilution. […] Formed TF-VIIa complexes were quantified with substrate factor X added at 100 nM for a fixed time. Samples were then removed from the reaction and quenched in 100 mM EDTA in TBS (20 mM Tris-HCl 140 mM NaCl, pH 7.4). […] The rate of Spectrozyme hydrolysis, measured as the increase in absorbance (mOD/min), was determined at ambient temperature in a kinetic plate reader (Molecular Devices, Mountain View, Calif.) followed by quenching and monitoring of product factor Xa formation using the Spectrozyme FXa.
Enzfitter (Elsevier Biosoft) programs were employed to calculate the KDapp from the experimentally determined bound VIIa, and free VIIa which was obtained by subtracting bound VIIa from the initial VIIa concentration.

Factor X = assay: Functional cleavage of Factor X by the TF-VIIa complex (reaction rate Vmax), D44 mutants
Protocol: as §1
Additional mhuTF mutants were prepared based on amino acid residue substitutions at amino acid residue position number D44.

Molecule | loss of function (reduction in specific functional activity as % of wild-type activity) [1] | binding of Factor VIIa (recombinant VIIa) | change in KDapp for the TF-VIIa interaction compared to wild-type TF (ratio KD mutant/KD wild-type) (recombinant VIIa) [fold] | loss of function (specific functional activity, Vmax) compared to wild-type (Factor X; calculated from Vmax rates) [%] | reaction rate (Vmax) (Factor X; cleavage of Factor X) [per second]
B1 | 98% | not substantially bind Factor VIIa | – | – | –
B2 | 30-50% | – | 7.4 | – | –
B3 | 70% | not substantially bind Factor VIIa | – | – | –
B4 | – | – | – | 75 | ~0.5
B5 | 30-50% | – | 18 | – | –
B6 | – | – | 3.5 | – | –
B7 | 35% | – | 11 | – | –
